Test results from the supplement of paper PMC9942255.

System: Bacillus subtilis DB104 (SP-AmyQ fusion secretion)
Experiment: AmyQ secretion efficiency, weighted average sort bin (1 = best secretion, 10 = worst) (bin number (weighted average, 1-10)); higher = lower secretion efficiency
How it was run: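 Secretion score gives the read-frequency-weighted average bin number, normalised to beads per bin, with low-abundance sequences left out. A B. subtilis DB104 library expressing mature AmyQ fused to designed signal peptides, integrated at amyE, was encapsulated with fluorescein-starch at about 0.3 cells per ~65 nL alginate bead. Beads were grown about 13 h at room temperature, stained with nile red, and the occupied ones were sorted by large-particle flow cytometry into 10 equally populated bins by green/red fluorescence ratio before the amplicons from each bin were Illumina-sequenced.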

Sequence | AmyQ secretion efficiency
MKNMSCKTSGSTTGGTSFLTIGPLAHAQNS | 6.59
MNKLKRLSMLTVMIASVFIFSSHALAAQE | 1.11
MFNRLFRVCFLAALIMAFTLPNSNYAQKP | 5.99
MKKWMAGLFLAAAVLLCLMVPQQLQGASS | 5.67
MNLRKILLSSALSLGMLEEEDEEVLATSS | 4.45
MKKVLMAFIICLSLILRRRKKPPSGAKAESV | 7.24
MKLWMRKTLVVLFTIVTFGLVSPPAALMCDKP | 2.74
MKLSVKIAGVLTVAAAAMTAKMYKTAKGN | 7.2
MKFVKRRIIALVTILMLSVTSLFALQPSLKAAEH | 2.75
MKKVLMAFIICLSLILQGGKGPPGGAKAESV | 5.23
MKRLFMKYKRYQKQVVFVFAVKGAPAKAETH | 7.88
MRFTKNVVGFLSVLGLAAVFPLTAQAEKA | 2.41
MFNRLFRVCFLAALIMAFTLPNSVYAQTP | 2.03
MRMLWRSLALCGLALTLAFLSVSLFFVPCAQAAEP | 1.41
MRNLTKTSLLLAGLCTAAQMVFVTHTSAEES | 3.23
MKKKQVMLALTAAAGLGLTALHSAPAAKAAPK | 1.55
MKRVLTGSVLSLGLLVSASPAFATSP | 1.56
MTMLRKIIGWILLLCIIPLFAFTVIESGKEV | 6.44
MKKLIVLLFFSFFGVQPIHAKKQ | 5.47
MKKRLIGFLVLVPALIKSGITLIEANKK | 6.34
MKRTWNVCLTALLSVLLVAGSVPSHAEAKKP | 1.85
MKKQIITATTAVVLGSTLFAGAVSAQSI | 1.69
MRFTKVVGFLSVLGLAAVFPLTCQAEKA | 2.19
MKRLCLWFTVFSLFLVLLPGKALGARR | 2.37
MFMLTMNNMAIIIAIIAAVIVIAALITFNVRNASPG | 6.62
MFFVLMAFIICLSLILSVLAAPPSGAKAESV | 5.38
MGLGKKLSVAVAASFMSLSISLPGVQVAEG | 3.6

Sequence | AmyQ secretion efficiency
MKKRWRKTSQAAVLLLMVPKVSLADAA | 7.38
MKVCQKSIVRFLVSLIIGTFVISVPFMANAQSE | 1.52
MIMLWRSLALCGLALTLAPCAQAAEP | 4.91
MKWMCSICCAAVLLAGGANQAEAV | 2.83
MKKRFFGPIILAFILFAGAIAIEE | 6.41
MRRRWRSLALCGLALTLAPCAQAAEP | 2.05
MKLKSKLLLSCLALSTVFVATTIANIPTH | 5.95
MKVLLSALLLLLFAFEPSRSGKKL | 6.31
MKKKRVMLALTAAAGLGLTALHSAPAAKAAPL | 2.47
MGCGTQGKGSGIASFPVSAQAKDQ | 6.09
MRKTIFAFLTGLMMFGTITAISASPD | 5.52
MIAYFGKCLLLVTIMFLGVLFGMQQMNHG | 5.05
MKKKQVMLALTAAAGLGLTALHSAPAQKAAPL | 5.43
MKKAFILSAAAAVGLFTFGGVQQASCKEL | 2.66
MTIFLMAVFVIMISFLIATVNVNTAHAAID | 6.34
MRKKLKWLSFLLGFIILLFLFKYQQSNNDS | 6.25
MLKKKWMVGLLAGCLAAGGFSYNAFCTEN | 6.56
MNKLKRLSMLTVMIASVFIFSSHALMAQY | 7.08
MKKRLIAPMLLSAASLAFFAMSGSAQARKK | 5.79
MRSYIKVLTMCFLGLILFVPTGLADNS | 1.86
MKKLVLCVSILAVILRKKALTQLS | 7.41
MLKKIALTLCPAIVGSLLFFTGPASAHVS | 2.54
MTMLRKIIGWILLLCIIPLFAFTVIASGATD | 6.31
MLKKIALTLCPAIVGSLLFFTAPCSAHVS | 3.32
MFKKHTISLLIIFLLASAVLAKPIEYHTV | 5.13
MKKRLIAPMLLSAASLAFFAEEEEDEAQAAAY | 3.9
